The text below walks through data of patent US20050260657A1 (UNIVERSITY OF TOKYO, published 2005).

B1: MBP-ERp44 (maltose binding protein fused ERp44) (other, mouse, UniProt Q9D1Q6 30-406, looked up, not shown: large carriers)
chain: EIASLDSENIDEILNNADVALVNFYADWCRFSQMLHPIFEEASDVIKEEYPDKNQVVFARVDCDQHSDIAQRYRISKYPTLKLFRNGMMMKREYRGQRSVKALADYIRQQKSNPVHEIQSLDEVTNLDRSKRNIIGYFEQKDSENYRVFERVASILHDDCAFLSAFGDLSKPERYNGDNVIYKPPGRSAPDMVYLGSMTNFDVTYNWIQDKCVPLVREITFENGEELTEEGLPFLILFHMKDDTESLEIFQNEVARQLISEKGTINFLHADCDKFRHPLLHIQKTPADCPVIAIDSFRHMYVFGDFKDVLIPGKLKQFVFDLHSGKLHREFHHGPDPTDTAPGEQDQDVASSPPESSFQKLAPSEYRYTLLRDRDEL

Experiment [1] addresses IP3R1 of mouse cerebellar microsomes in planar lipid bilayer (mouse, UniProt P11881 1-2749). Nature of the experiment: cell-based or functional assay.
The target of experiment [2] is T1, GFP-IP3R1 (IP3R1 fused N-terminally with green fluorescent protein) (UniProt P11881 1-2749).
T1 construct: Expressed in COS-7 or DT40-TKO cells; also called GFP-IP3R1-N; not shown: green fluorescent protein
Nature of the experiment: co-immunoprecipitation from COS-7 cells exposed to ATP (activator of purinergic receptors), DSP crosslink.

Experiment [3] has as its target T2, IP3R1 (inositol 1,4,5-trisphosphate receptor type 1), untagged, expressed in cells (mouse, UniProt P11881 1-2749).
T2 construct: whole, on cells; ER membrane channel; species is printed for the DT40-KMN60 line, not for the COS-7 vector; also called mouse IP3R1 in DT40-KMN60 cells
Put plainly: interaction in transfected cells; data not shown.

For experiment [4], the target named is MBP (maltose binding protein alone) (UniProt P0AEX9 27-392 = MBP). Put plainly: GST pull-down, pH 5.2, 4 mM Ca2+.
Experiment [5] has as its target B1. Put plainly: GST pull-down, acid buffer with Ca2+.

Sequence of IP3R1 of mouse cerebellar microsomes in planar lipid bilayer (P11881 whole entry, the tested form may be a part): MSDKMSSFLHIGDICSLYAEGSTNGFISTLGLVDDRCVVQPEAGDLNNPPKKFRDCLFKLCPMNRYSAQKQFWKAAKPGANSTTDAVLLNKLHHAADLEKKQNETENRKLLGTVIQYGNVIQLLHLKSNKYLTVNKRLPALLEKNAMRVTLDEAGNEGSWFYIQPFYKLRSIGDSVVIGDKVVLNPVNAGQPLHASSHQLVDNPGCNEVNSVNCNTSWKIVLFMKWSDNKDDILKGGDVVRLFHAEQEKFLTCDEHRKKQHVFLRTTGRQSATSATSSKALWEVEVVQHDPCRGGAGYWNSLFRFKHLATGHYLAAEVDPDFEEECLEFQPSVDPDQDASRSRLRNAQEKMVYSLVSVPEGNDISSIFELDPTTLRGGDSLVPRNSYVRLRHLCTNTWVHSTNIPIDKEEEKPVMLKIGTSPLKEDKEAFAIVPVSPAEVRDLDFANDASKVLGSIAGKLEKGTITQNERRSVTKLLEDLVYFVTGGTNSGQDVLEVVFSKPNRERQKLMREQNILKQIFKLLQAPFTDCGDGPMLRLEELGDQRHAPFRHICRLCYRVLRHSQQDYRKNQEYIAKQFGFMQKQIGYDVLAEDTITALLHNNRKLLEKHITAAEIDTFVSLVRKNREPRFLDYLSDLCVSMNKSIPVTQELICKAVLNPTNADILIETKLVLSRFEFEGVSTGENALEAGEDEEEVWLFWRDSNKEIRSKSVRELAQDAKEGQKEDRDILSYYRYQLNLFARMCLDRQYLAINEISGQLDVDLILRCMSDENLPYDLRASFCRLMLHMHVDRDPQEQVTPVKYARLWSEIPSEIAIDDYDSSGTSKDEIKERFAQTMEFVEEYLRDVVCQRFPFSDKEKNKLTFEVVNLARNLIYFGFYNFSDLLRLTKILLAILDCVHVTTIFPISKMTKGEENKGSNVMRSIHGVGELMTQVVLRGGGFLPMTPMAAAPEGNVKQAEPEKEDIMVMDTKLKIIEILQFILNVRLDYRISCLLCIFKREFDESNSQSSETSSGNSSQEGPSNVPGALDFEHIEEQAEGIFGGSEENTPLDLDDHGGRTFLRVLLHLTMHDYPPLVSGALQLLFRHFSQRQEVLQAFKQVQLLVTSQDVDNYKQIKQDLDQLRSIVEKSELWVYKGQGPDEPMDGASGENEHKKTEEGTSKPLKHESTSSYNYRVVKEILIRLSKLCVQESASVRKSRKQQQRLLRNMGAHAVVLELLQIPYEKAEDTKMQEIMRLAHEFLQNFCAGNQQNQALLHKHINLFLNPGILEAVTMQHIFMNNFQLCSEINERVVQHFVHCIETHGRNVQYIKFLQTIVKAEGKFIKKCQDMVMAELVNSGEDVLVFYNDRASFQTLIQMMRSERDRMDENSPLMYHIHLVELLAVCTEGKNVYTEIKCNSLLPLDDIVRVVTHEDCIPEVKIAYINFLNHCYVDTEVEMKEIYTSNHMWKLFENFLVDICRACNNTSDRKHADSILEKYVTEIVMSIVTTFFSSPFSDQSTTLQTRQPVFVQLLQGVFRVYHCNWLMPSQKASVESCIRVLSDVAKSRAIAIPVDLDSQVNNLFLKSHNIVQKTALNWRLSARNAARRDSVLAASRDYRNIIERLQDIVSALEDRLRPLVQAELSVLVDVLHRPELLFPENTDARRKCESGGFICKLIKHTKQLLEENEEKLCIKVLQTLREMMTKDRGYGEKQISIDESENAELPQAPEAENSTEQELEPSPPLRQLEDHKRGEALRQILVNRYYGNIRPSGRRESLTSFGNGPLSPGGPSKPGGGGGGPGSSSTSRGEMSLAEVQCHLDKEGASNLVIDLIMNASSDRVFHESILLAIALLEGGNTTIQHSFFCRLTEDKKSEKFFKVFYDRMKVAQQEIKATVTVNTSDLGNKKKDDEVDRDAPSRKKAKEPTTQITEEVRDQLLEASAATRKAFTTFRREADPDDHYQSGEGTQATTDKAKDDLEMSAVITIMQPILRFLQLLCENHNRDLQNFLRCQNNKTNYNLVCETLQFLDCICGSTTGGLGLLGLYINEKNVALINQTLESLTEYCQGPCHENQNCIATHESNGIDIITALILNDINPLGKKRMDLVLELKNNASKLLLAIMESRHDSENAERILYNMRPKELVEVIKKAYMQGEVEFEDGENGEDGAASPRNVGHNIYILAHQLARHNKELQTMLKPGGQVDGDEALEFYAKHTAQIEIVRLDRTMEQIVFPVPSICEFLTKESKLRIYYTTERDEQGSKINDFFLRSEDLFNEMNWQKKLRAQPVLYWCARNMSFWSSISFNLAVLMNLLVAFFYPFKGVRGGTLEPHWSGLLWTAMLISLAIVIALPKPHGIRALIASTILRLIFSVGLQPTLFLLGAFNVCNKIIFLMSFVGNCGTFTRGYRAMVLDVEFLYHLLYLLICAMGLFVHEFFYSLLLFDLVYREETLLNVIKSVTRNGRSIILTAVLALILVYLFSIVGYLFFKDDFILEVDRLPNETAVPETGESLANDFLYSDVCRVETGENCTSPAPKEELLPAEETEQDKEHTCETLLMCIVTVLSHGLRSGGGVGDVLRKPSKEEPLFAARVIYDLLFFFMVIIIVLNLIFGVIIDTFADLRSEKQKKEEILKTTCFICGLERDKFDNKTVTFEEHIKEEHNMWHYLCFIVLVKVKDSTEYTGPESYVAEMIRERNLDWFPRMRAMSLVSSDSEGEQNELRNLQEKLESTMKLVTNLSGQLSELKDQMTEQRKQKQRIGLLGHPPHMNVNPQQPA

Take B1: the “Single-channel open probability (IC50)” value in experiment [1] came out at 1000 nM.

B2: HA-ERp44 (haemagglutinin A epitope-tagged ERp44) (other, mouse, UniProt Q9D1Q6 30-406, looked up, not shown: small tags and cut ends)
chain: EIASLDSENIDEILNNADVALVNFYADWCRFSQMLHPIFEEASDVIKEEYPDKNQVVFARVDCDQHSDIAQRYRISKYPTLKLFRNGMMMKREYRGQRSVKALADYIRQQKSNPVHEIQSLDEVTNLDRSKRNIIGYFEQKDSENYRVFERVASILHDDCAFLSAFGDLSKPERYNGDNVIYKPPGRSAPDMVYLGSMTNFDVTYNWIQDKCVPLVREITFENGEELTEEGLPFLILFHMKDDTESLEIFQNEVARQLISEKGTINFLHADCDKFRHPLLHIQKTPADCPVIAIDSFRHMYVFGDFKDVLIPGKLKQFVFDLHSGKLHREFHHGPDPTDTAPGEQDQDVASSPPESSFQKLAPSEYRYTLLRDRDEL
notes: whole, on cells; tagged vectors made by PCR
Regarding B2, the “fold increase of GFP-IP3R1 co-precipitated with HA-ERp44 after the treatment against untreated cells” value in experiment [2] was about 2 fold.

B3: ERp44-C58S (other, UniProt Q9D1Q6 30-406, looked up)
chain: EIASLDSENIDEILNNADVALVNFYADWSRFSQMLHPIFEEASDVIKEEYPDKNQVVFARVDCDQHSDIAQRYRISKYPTLKLFRNGMMMKREYRGQRSVKALADYIRQQKSNPVHEIQSLDEVTNLDRSKRNIIGYFEQKDSENYRVFERVASILHDDCAFLSAFGDLSKPERYNGDNVIYKPPGRSAPDMVYLGSMTNFDVTYNWIQDKCVPLVREITFENGEELTEEGLPFLILFHMKDDTESLEIFQNEVARQLISEKGTINFLHADCDKFRHPLLHIQKTPADCPVIAIDSFRHMYVFGDFKDVLIPGKLKQFVFDLHSGKLHREFHHGPDPTDTAPGEQDQDVASSPPESSFQKLAPSEYRYTLLRDRDEL
notes: whole, on cells
B3: the binding result in experiment [3] was “binds”.

B4: GST-1L3V (glutathione S-transferase fused L3V domain of IP3R1) (other, not shown: a dimerising Fc or GST; large carriers; small tags and cut ends)
chain: KDDFILEVDRLPNETAVPETGESLANDFLYSDVCRVETGENCTSPAPKEELLPAEETEQDKEHTCE
notes: Expressed in E. coli, purified on GSH-Sepharose; also called GST-L3V
As for B4, the binding result is given as “no binding” in experiment [4] and “binds” in experiment [5].
